This experiment concerns the target Human VEGF165 (human) (UniProt P15692). The experiment can be described thus: ELISA; human VEGF165 coated on MaxiSorp plates (0.4 µg/mL in PBS, pH 7.4, overnight); aflibercept samples added as 2-fold serial dilutions (1000.0-1.0 ng/mL) in 4% milk powder in PBS-T, RT, 1.5 h; detected with anti-human IgG γ chain-HRPO; EC50 by four-parametric log model. Background: ELISA stands for enzyme-linked immunosorbent assay.
Chain of Human VEGF165 (human) (P15692 other isoform, or with tags, fused parts or gaps): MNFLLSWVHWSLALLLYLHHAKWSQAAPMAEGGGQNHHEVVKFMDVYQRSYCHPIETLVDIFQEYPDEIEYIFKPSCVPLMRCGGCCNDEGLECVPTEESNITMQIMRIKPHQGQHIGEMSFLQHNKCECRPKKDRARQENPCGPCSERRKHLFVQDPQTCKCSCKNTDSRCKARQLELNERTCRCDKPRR
Chain of Aflibercept with sialylated N-glycans (AFLI^Sia), isolated from intercellular fluid (Fc fusion) (chain): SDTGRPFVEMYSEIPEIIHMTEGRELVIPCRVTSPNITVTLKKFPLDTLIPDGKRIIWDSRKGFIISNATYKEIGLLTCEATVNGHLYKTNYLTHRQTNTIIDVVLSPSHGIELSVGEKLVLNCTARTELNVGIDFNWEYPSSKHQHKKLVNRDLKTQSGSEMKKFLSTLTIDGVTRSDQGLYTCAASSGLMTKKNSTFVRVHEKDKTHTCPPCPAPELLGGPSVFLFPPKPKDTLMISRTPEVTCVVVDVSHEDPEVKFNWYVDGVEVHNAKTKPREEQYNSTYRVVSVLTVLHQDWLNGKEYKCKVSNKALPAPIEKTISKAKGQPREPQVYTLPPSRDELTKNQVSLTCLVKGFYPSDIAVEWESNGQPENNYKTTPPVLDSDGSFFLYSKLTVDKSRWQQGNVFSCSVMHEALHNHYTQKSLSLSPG
Chain of Aflibercept with sialylated N-glycans (AFLI^Sia), isolated from total soluble protein (Fc fusion) (chain): as above
Chain of Aflibercept with GlcNAc-terminated N-glycans (AFLI^GnGn), isolated from total soluble protein (Fc fusion) (chain): as above
On to “Aflibercept with sialylated N-glycans (AFLI^Sia), isolated from intercellular fluid (Fc fusion)”, for which the EC50 (in general, the concentration needed to bring the measured effect to its halfway point) is 0.358 nM. That is a sub-nanomolar value. The value for “Aflibercept with GlcNAc-terminated N-glycans (AFLI^GnGn), isolated from total soluble protein (Fc fusion)” was 0.242 nM; that for “Aflibercept with sialylated N-glycans (AFLI^Sia), isolated from total soluble protein (Fc fusion)” was 0.31 nM.
